Results reported in patent US20060147995A1 (UNILEVER PATENT HOLDINGS B V, published 2006).

Molecular target: T1, bovine serum albumin (bovine, UniProt P02769 25-607)
T1 construct: Unconjugated carrier protein used as a control antigen; also called BSA
Experiment: ELISA of soluble HC-V-myc supernatant on immobilised antigens, anti-myc detection
Description: Commercially available strains such as TOPIOF (stratagene) and HB2151 (Pharmacia) may alternatively be used. Two transformants of each clone were pre-grown in 10 ml 2TY/Ampicillin/Glucose. After 3-4 hours of growth at 37° C. (OD₆₀₀=0.5), the cells were pelleted by centrifugation and resuspended in 5 ml 2TY/Ampicillin/IPTG (0.1 mM). After 24 hours of incubation at 25° C. the cultures were centrifuged, and the supernatants were analysed for the production of antigen binding activity in essential the same way as described in Example 3. In this case, however, the presence of specifically bound HC-V fragments was detected by incubation with monoclonal anti-myc antibodies, followed by incubation with poly-clonal rabbit-anti-mouse conjugate with alkaline phosphatase.
Another three clones (nR3, nR4 and nR8) were specific for RR6-BSA, but the signals observed were very low. […] This was confirmed by analysis of the supernatants on Western blots (FIG. 3B). The remaining 3 clones (nR6, nR9 and nR10) gave significant signals over background on RR6-BSA, BSA and E3G-OVA (FIG. 3A). It would appear that these three ‘sticky’ clones bind to immobilised proteins in general.

T1 sequence (P02769 25-607 limits assumed): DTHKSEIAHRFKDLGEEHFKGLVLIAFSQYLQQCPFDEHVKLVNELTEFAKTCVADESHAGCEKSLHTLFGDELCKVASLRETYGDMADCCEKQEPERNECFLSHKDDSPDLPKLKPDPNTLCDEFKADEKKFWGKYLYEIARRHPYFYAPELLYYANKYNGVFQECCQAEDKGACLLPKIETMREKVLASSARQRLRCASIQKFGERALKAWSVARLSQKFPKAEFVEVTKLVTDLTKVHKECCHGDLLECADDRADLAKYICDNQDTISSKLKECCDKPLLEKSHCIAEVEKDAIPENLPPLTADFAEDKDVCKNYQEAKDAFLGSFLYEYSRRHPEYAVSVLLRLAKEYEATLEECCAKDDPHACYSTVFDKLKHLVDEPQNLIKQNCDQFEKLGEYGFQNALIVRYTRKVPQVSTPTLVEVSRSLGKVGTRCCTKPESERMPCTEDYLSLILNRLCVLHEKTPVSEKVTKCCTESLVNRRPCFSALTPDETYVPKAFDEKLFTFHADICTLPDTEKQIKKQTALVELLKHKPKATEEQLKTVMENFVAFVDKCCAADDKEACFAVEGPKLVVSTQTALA

binding result: no binding
B1: nR11 (VHH)
VHH: QVQLQESGGGLVQPGDFVRLSCAASRRASSTYAVGWFRQAPGKEREFVGRIHRGGGSTYYADSVKGRFTISRDNTQNTVYLQMNSLKPEDTAVYYCNVRSYWGQGTQVTVSS
notes: Llama HC-V tested as soluble HC-V-myc in crude culture supernatant; also called anti-RR6 HC-V fragment nR11; HC-V-myc
